To fix the notation:
T1: Ep-CAM (UniProt P16422 24-265, limits assumed)
T1 construct: Immobilised on the Biacore chip; construct not described
T1 sequence (looked up): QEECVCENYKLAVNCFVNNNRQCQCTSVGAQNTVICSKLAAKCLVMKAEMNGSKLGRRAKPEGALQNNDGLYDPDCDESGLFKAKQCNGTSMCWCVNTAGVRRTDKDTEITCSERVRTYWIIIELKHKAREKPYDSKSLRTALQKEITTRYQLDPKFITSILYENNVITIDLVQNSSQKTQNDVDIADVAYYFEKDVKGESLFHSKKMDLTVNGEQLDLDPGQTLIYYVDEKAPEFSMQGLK

T2: Ep-CAM (UniProt P16422 24-265, limits assumed)
T2 sequence (looked up): T1 sequence (looked up)

B1: ING-1 Fab, light chain E98P (Fab, V domains shown)
VH: QIQLVQSGPELKKPGETVKISCKASGYTFTKYGMNWVKQAPGKGLKWMGWINTYTEEPTYGDDFKGRFAFSLETSASTANLQINNLKSEDTATYFCARFGSAVDYWGQGTSVTVSS
VL: DIVMTQAAFSNPVTLGTSGSISCRSSKSLLHSNGITYLYWYLQKPGQSPQLLIYQMSNLASGVPDRFSSSGSGTDFTLRISRVEAEDVGVYYCAQNLPLPRTFGGGTKLEMKR
notes: Fab in periplasmic extract
B2: ING-1 Fab, light chain K27T (Fab, V domains shown)
VH: B1 VH
VL: B1 VL with K27T, P98E
notes: Fab in periplasmic extract
B3: ING-1 Fab, light chain L29P (Fab, V domains shown)
VH: B1 VH
VL: B1 VL with L29P, P98E
notes: Fab in periplasmic extract
B4: ING-1 Fab, light chain R101V (Fab, V domains shown)
VH: B1 VH
VL: B1 VL with P98E, R101V
notes: Fab in periplasmic extract
B5: ING-1 Fab, light chain L97G (Fab, V domains shown)
VH: B1 VH
VL: B1 VL with L97G, P98E
notes: Fab in periplasmic extract
B6: ING-1 Fab, light chain L99T (Fab, V domains shown)
VH: B1 VH
VL: B1 VL with P98E, L99T
notes: Fab in periplasmic extract
B7: ING-1 Fab, light chain L99P (Fab, V domains shown)
VH: B1 VH
VL: B1 VL with P98E, L99P
notes: Fab in periplasmic extract
B8: ING-1 Fab, light chain L99G (Fab, V domains shown)
VH: B1 VH
VL: B1 VL with P98E, L99G
notes: Fab in periplasmic extract
B9: ING-1 Fab, light chain L97A (Fab, V domains shown)
VH: B1 VH
VL: B1 VL with L97A, P98E
notes: Fab in periplasmic extract
B10: ING-1 Fab, light chain P100T (Fab, V domains shown)
VH: B1 VH
VL: B1 VL with P98E, P100T
notes: Fab in periplasmic extract
B11: ING-1 Fab, light chain P100L (Fab, V domains shown)
VH: B1 VH
VL: B1 VL with P98E, P100L
notes: Fab in periplasmic extract
B12: ING-1 Fab, light chain I35L (Fab, V domains shown)
VH: B1 VH
VL: B1 VL with I35L, P98E
notes: Fab in periplasmic extract
B13: ING-1 Fab, light chain M56T (Fab, V domains shown)
VH: B1 VH
VL: B1 VL with M56T, P98E
notes: Fab in periplasmic extract
B14: ING-1 Fab, light chain L29I (Fab, V domains shown)
VH: B1 VH
VL: B1 VL with L29I, P98E
notes: Fab in periplasmic extract
B15: ING-1 Fab, light chain Y54I (Fab, V domains shown)
VH: B1 VH
VL: B1 VL with Y54I, P98E
notes: Fab in periplasmic extract
B16: ING-1 Fab, light chain M56V (Fab, V domains shown)
VH: B1 VH
VL: B1 VL with M56V, P98E
notes: Fab in periplasmic extract
B17: ING-1 Fab, light chain R101A (Fab, V domains shown)
VH: B1 VH
VL: B1 VL with P98E, R101A
notes: Fab in periplasmic extract
B18: ING-1 Fab, light chain R101P (Fab, V domains shown)
VH: B1 VH
VL: B1 VL with P98E, R101P
notes: Fab in periplasmic extract
B19: ING-1 Fab, light chain R101I (Fab, V domains shown)
VH: B1 VH
VL: B1 VL with P98E, R101I
notes: Fab in periplasmic extract
B20: ING-1 Fab, light chain R101G (Fab, V domains shown)
VH: B1 VH
VL: B1 VL with P98E, R101G
notes: Fab in periplasmic extract
B21: ING-1 Fab, light chain Y37V (Fab, V domains shown)
VH: B1 VH
VL: B1 VL with Y37V, P98E
notes: Fab in periplasmic extract
B22: ING-1 Fab, light chain Q55G (Fab, V domains shown)
VH: B1 VH
VL: B1 VL with Q55G, P98E
notes: Fab in periplasmic extract
B23: ING-1 Fab, light chain N33T (Fab, V domains shown)
VH: B1 VH
VL: B1 VL with N33T, P98E
notes: Fab in periplasmic extract
B24: ING-1 Fab, light chain N33V (Fab, V domains shown)
VH: B1 VH
VL: B1 VL with N33V, P98E
notes: Fab in periplasmic extract
B25: ING-1 Fab, light chain S57G (Fab, V domains shown)
VH: B1 VH
VL: B1 VL with S57G, P98E
notes: Fab in periplasmic extract
B26: ING-1 Fab, light chain Y37T (Fab, V domains shown)
VH: B1 VH
VL: B1 VL with Y37T, P98E
notes: Fab in periplasmic extract
B27: ING-1 Fab, light chain Y54A (Fab, V domains shown)
VH: B1 VH
VL: B1 VL with Y54A, P98E
notes: Fab in periplasmic extract
B28: ING-1 Fab, light chain I35P (Fab, V domains shown)
VH: B1 VH
VL: B1 VL with I35P, P98E
notes: Fab in periplasmic extract
B29: ING-1 Fab, light chain Y37A (Fab, V domains shown)
VH: B1 VH
VL: B1 VL with Y37A, P98E
notes: Fab in periplasmic extract
B30: ING-1 Fab, light chain Y37I (Fab, V domains shown)
VH: B1 VH
VL: B1 VL with Y37I, P98E
notes: Fab in periplasmic extract
B31: ING-1 Fab, light chain P100A (Fab, V domains shown)
VH: B1 VH
VL: B1 VL with P98E, P100A
notes: Fab in periplasmic extract
B32: ING-1 Fab, light chain R101T (Fab, V domains shown)
VH: B1 VH
VL: B1 VL with P98E, R101T
notes: Fab in periplasmic extract
B33: ING-1 Fab, light chain M56G (Fab, V domains shown)
VH: B1 VH
VL: B1 VL with M56G, P98E
notes: Fab in periplasmic extract
B34: XPA23 heavy chain D106A (Fab, V domains shown)
VH: EVQLLESGGGLVQPGGSLRLSCAASGFTFSKYFMFWVRQAPGKGLEWVSVISPSGGMTRYADSVKGRFTISRDNSKNTLYLQMNSLRAEDTAVYYCARVGYGGNSAYWGQGTLVTVSS
VL: DIQMTQSPSSVSASVGDRLTIICRASQDINRWLAWYQQTPGNAPKLLIHSATSLQSGVPSRFSGSGSGTDFTLTINSLQPEDFATYYCQQADSFPLTFGGGTKVEIK
notes: Fab, periplasmic extract; also called C5A D106A
B35: XPA23 heavy chain D106I (Fab, V domains shown)
VH: B34 VH with A106I
VL: B34 VL
notes: Fab, periplasmic extract; also called C5A D106I
B36: ING-1 Fab, heavy chain Y105G (Fab, V domains shown)
VH: B1 VH with Y105G
VL: B1 VL with P98E
notes: Fab in periplasmic extract
B37: ING-1 Fab, heavy chain Y105A (Fab, V domains shown)
VH: B1 VH with Y105A
VL: B1 VL with P98E
notes: Fab in periplasmic extract
B38: ING-1 Fab, heavy chain Y32P (Fab, V domains shown)
VH: B1 VH with Y32P
VL: B1 VL with P98E
notes: Fab in periplasmic extract
B39: ING-1 Fab, heavy chain Y105P (Fab, V domains shown)
VH: B1 VH with Y105P
VL: B1 VL with P98E
notes: Fab in periplasmic extract

The source of these data is US20110118131A1 (published 2011).

Numbering of substitutions follows the chain as printed. Names and notes keep the numbering of the source.

The target of one test is T1, Ep-CAM. The experiment in a line: Biacore, Fab periplasmic extract. In general terms: In SPR one partner is held on a chip, and binding of the other changes the refractive index at the surface.
Turning to B1, the binding result is “no binding”. With B2, the binding result is listed as “no binding”.

Turning to B3, the binding result was “no binding”. In the case of B4, the binding result is listed as “no binding”. B5: the binding result is reported as “no binding”.

In the case of B6, the “fold difference in affinity vs original ING-1” value is 0.09 fold.

For the molecule B7, the “fold difference in affinity vs original ING-1” value was 0.01 fold. On to B8, for which the “fold difference in affinity vs original ING-1” value is 0.02 fold. For B9, the “fold difference in affinity vs original ING-1” value was found to be 0.5 fold.

In the case of B10, the “fold difference in affinity vs original ING-1” value came to 0.08 fold.

For B11, the “fold difference in affinity vs original ING-1” value stood at 0.03 fold. For the molecule B12, the “fold difference in affinity vs original ING-1” value stood at 0.6 fold. Consider B13, for which the “fold difference in affinity vs original ING-1” value is 0.8 fold. B14: the binding result was “no binding”. On to B15, for which the binding result is “no binding”.

Regarding B16, the binding result is given as “no binding”. On to B17, for which the binding result was “no binding”.

Take B18: the binding result is recorded as “no binding”. On to B19, for which the binding result was “no binding”. As for B20, the binding result is listed as “no binding”.

On to B21, for which the binding result is “no binding”.

In the case of B22, the “fold difference in affinity vs original ING-1” value came out at 0.7 fold. For B23, the “fold difference in affinity vs original ING-1” value is 0.6 fold. Regarding B24, the binding result was “no binding”. On to B25, for which the binding result is “no binding”. On the same count and under the same terms, the same measure for B26: “no binding”. On to B27, for which the “fold difference in affinity vs original ING-1” value amounted to 0.08 fold. On to B28, for which the “fold difference in affinity vs original ING-1” value came to 0.7 fold. As for B29, the “fold difference in affinity vs original ING-1” value worked out at 0.04 fold. In the case of B30, the “fold difference in affinity vs original ING-1” value was determined as 0.9 fold.

With B31, the “fold difference in affinity vs original ING-1” value is 0.05 fold.

Turning to B32, the binding result is listed as “no binding”. As to B33, the “fold difference in affinity vs original ING-1” value worked out at 0.8 fold.

In a further test the target is T3, IL-1β (UniProt P01584 117-269).
T3 construct: Antigen of XPA23
The experiment in a line: Biacore, Fab periplasmic extract; -1 = no binding by the table's footnote.
As to B34, the binding result was “no binding”. For the molecule B35, the binding result is on record as “no binding”.

In another test the target is T2, Ep-CAM. The experiment in a line: Biacore, Fab periplasmic extract on immobilised Epcam.
Turning to B36, the binding result was “no binding”. For B37, the “fold difference in affinity vs original” value worked out at 0.08 fold. On the same count and under the same terms, the same measure for B38: 0.01 fold.

As for B39, the binding result is “no binding”.
